These results are taken from article PMC11878792.

The data set concerns the target wt human lysyl-tRNA synthetase (h-LysRS, cytosolic) (human) (UniProt Q15046). The experiment in a line: EMSA. The following applies: 1 mM Mg2+, Kd values printed only in Fig. 4C, EMSA: 20 mM HEPES pH 7.4, 60 mM NaCl, 10 mM KCl, 1 mM MgCl2, 400 uM DTT, 8% glycerol, room temperature 30 min, 37.5 nM tRNA, 0-5 uM LysRS, Hill fit, SYBR Gold …. On the technique in general: A gel shift assay detects complexes by their altered migration in electrophoresis.

Chain of wt human lysyl-tRNA synthetase (h-LysRS, cytosolic) (human) (Q15046 whole entry): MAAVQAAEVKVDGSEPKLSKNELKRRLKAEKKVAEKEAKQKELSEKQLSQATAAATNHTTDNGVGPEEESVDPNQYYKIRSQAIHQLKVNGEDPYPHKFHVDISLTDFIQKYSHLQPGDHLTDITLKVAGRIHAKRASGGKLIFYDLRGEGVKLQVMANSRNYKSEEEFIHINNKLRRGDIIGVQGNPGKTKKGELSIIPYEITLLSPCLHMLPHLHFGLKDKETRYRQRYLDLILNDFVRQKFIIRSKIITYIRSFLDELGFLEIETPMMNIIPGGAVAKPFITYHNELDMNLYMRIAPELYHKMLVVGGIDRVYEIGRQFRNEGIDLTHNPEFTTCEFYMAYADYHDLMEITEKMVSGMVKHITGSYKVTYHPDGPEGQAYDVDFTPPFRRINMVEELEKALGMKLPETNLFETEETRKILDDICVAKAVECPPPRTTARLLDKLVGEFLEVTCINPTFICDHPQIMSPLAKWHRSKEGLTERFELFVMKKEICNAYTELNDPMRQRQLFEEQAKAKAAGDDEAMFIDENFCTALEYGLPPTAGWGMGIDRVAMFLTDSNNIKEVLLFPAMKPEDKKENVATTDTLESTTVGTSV

The substance IVT unmodified tRNALys3 yielded a binding signal (scale: fold lower affinity than modified tRNALys3) of 2.5.
In the case of cellular fully modified tRNALys3, the binding signal (fold higher affinity than IVT tRNALys3) (native modifications, named: m2G10, D20, S34 (mcm5s2U), R37 (ms2t6A), D47, psi55, 9 types, 14 modified nucleotides modeled) was found to be 2.5.
